Test results published in patent US20200223906A1 (Adimab, published 2020).

How the values were obtained:
[1] = molecular target: T1, RSV F ectodomain stabilized in the postfusion conformation (F ΔFP), subtype B (respiratory syncytial virus subtype B, UniProt P13843 26-109; P13843 147-524); assay: BLI (Octet), IgG on AHQ sensor, 100 nM antigen
T1 construct: extracellular domain; Trimer; also called Postfusion subtype B

[2] = molecular target: T2, RSV F ectodomain stabilized in the postfusion conformation (F ΔFP), subtype A (respiratory syncytial virus subtype A, UniProt P03420 26-109; P03420 147-524); assay: BLI (Octet), IgG on AHQ sensor, 100 nM antigen
T2 construct: extracellular domain; Trimer; also called Postfusion subtype A

[3] = molecular target: RSV F protein of subtype B (18537) on recombinant mKate-RSV (respiratory syncytial virus subtype B …, UniProt P13843 26-574); assay: cell-based or functional assay
[4] = molecular target: T3, RSV F protein of subtype A (strain A2) on recombinant mKate-RSV (respiratory syncytial virus subtype A …, UniProt P03420 26-574); assay: cell-based or functional assay
[5] = molecular target: human metapneumovirus (HMPV) F protein on GFP-expressing hMPV recombinant virus (NL/1/00, A1 sublineage) (human metapneumovirus); assay: cell-based or functional assay
[6] = molecular target: T3, RSV F protein of subtype A (strain A2) …; assay: cell-based or functional assay; remark: listed apart in the source

Binder	Kd [1]	Kd [2]	Neut IC50 subtype B [3]	Neut IC50 subtype A [4]	HMPV-A1 IC50 [5]	RSV-A2 IC50 [6]
ADI-18982 (antibody, V domains shown, full-length IgG; also called Antibody Number 330) VH: QVQLVQSGAEVKKPGASVKVSCKASGYIFTSYGVSWVRQAPGQGLKWMGWISGYNGNTNYDQKLQGRVTMTTDTSTSTAYMELRSLTSDDTAVYYCARDSFSETGTGFPDFWGQGTLVTVSS VL: DIQMTQSPLSLPVTLGQPASISCRSSQSLEYSDGNTYLNWFQQRPGQSPRRLIYKVSNRDSGVPDRFSGSGSGTDFTLKISRVEAEDVGVYYCMQATHRPRTFGQGTKLEIK	0.747 nM	0.765 nM	0.053 mg/L	0.018 mg/L	–	–
ADI-18998 (antibody, V domains shown, full-length IgG; also called Antibody Number 346) VH: EVQLLESGPGLVKPSQTLSLTCTVSGGSINSIDYYWSWIRQPPGKGLEWIGYIYHSGSTHYRPSLKSRVTISLDKAKNEFSLSLTSVTAADTAVYFCASGPVGMATSNWFDPWGQGTLVTVSS VL: QPVLTQPPSVSVTPGETARLPCEGDIVVTNSVHWYQQKPGQAPVLVVYYDSDRASGIPERFSGSNSGNTATLSISRVEAGDEADYYCQVWDSSTDHHVVFGGGTKLTVL	–	12.4 nM	0.458 mg/L	0.055 mg/L	–	–
ADI-19000 (antibody, V domains shown, full-length IgG; also called Antibody Number 348) VH: EVQLVESGAEVKKPGASVKVSCKASGYTFTTYDINWVRQATGRGLEWMGWMTPDSGSTGYPQNFQGRVTMTRNTSISTAYMELSNLRSEDTAVYYCVQMDHCRSTSCSEGNWFDTWGQGTLVTVSS VL: QPGLTQPPSVSAAPRQRVTISCSGSSSNIGTNAVNWYQQLPGKAPKLLIYSDNLMPSGVSARFSGSKSGTSASLAISGLQSEDEADYYCAAWDDSLNVWVFGGGTKLTVL	0.128 nM	0.175 nM	0.129 mg/L	0.037 mg/L	–	–
ADI-18992 (antibody, V domains shown, full-length IgG; also called Antibody Number 340) VH: QVQLVQSGAEVKKPGASVKVSCKASGYIFTGYFIHWVRQAPGQGLEWMGVINPRGGSTSYAQKFQGRVAVSRDTSTTTVYMELNSLRSEDTAVYYCARAPSHDEWVAISRNNDVVGFDAWGQGTLVTVSS VL: QSVLTQPPSVSGAPGQRVTISCTGGSSNIGADYDVHWYQQPPGTAPKLLIFANNNRPSGVPGRFSGSKSGTSASLAITGLQAEDEADYYCQSYDSSLSAWVFGGGTKLTVL	0.907 nM	–	5.69 mg/L	2.55 mg/L	6.1 mg/L	2.5 mg/L
ADI-18990 (antibody, V domains shown, full-length IgG) VH: QVQLQESGPGRVKPSQTLSLTCTVSGVSVTINDYYWTWLRQSPGKGLEWIGNIYNSGSTYQNPSLQSRVTMSVDTAKNHFSLKLTSVTAADTAVYYCARDLGTANNYYFGMDVWGLGTTVTVSS VL: DIVLTQSPATLSLSPGERATLSCRASQSVSTYLAWYQQKPGQAPRLLIYNGSNRVTGTPARFSGSGSGTDFTLTISSVEPEDFAVYYCQQRSNWPPYTFGQGTKVEIK	0.252 nM	0.294 nM	0.845 mg/L	0.58 mg/L	–	–
ADI-19007 (antibody, V domains shown, full-length IgG) VH: QVQLVQSGGGLVQPGGSLRLSCAASGFTFSQSPMSWVRQAPGKGLEWVSGISTGGTNTYYADSVKGRFTISRDNSKNTLYLQMTSLRVGDTAVYYCAKESLDFGSGSYNWFDTWGQGTLVTVSS VL: not shown	0.457 nM	0.969 nM	0.37 mg/L	0.208 mg/L	–	–
ADI-18995 (antibody, V domains shown, full-length IgG; also called Antibody Number 343) VH: EVQLVESGPGLVKPSETLSLSCIVSGGSITSGDYYWSWLRQSPGKGLEWIGYIYHSGATFYTPSLRSRVTISTDTSKNQFSLRLSSVTAADTAVYYCASGPVGMATSNWFDPWGQGTLVTVSS VL: SYELTQPPSVSVAPGKTATITCGGDIIRTNSVNWYQQKPGQAPLLLIYYDSDRPSGIPERFSASNSGNTATLTISRVEAGDEADYYCQVWDSGTDYHVVFGGGTKLTVQ	–	12.3 nM	0.125 mg/L	0.043 mg/L	–	–
ADI-18999 (antibody, V domains shown, full-length IgG) VH: QVQLVQSGAEVKKPGSSVKVSCKASGGRFSSDAISWVRQAPGQGLEWMGGIIPIRGTPTYAQKFQGRVTIIADESTTTSYMEMSSLRSEDTAVYYCARPNYDILTGYNDAFDIWGQGTMVTVSS VL: QSVLTQPRSVSGSPGQSVTISCTGTSSDVGGYNYVSWYQQHPGKVPRLMIYDVSKRPSGAPDRFSGSKSGNTASLTISGLQAEDEADYYCCSYAGGLYVFGTGTKLTVL	0.141 nM	0.167 nM	6.46 mg/L	1.8 mg/L	–	–
